Substrate: CCC(CSC[C@@H](NC(=O)CC[C@H](N)C(=O)O)C(=O)NCC(=O)O)C(=O)c1ccc(OCC(=O)O)c(Cl)c1Cl
Experiment: TP_TRANSPORTER: uptake in membrane vesicles from S1(MRP) cells
Format: functional, cell membranes, Membrane vesicle

B1: Multidrug resistance-associated protein 1 (Homo sapiens) (protein)
chain: MALRGFCSADGSDPLWDWNVTWNTSNPDFTKCFQNTVLVWVPCFYLWACFPFYFLYLSRHDRGYIQMTPLNKTKTALGFLLWIVCWADLFYSFWERSRGIFLAPVFLVSPTLLGITMLLATFLIQLERRKGVQSSGIMLTFWLVALVCALAILRSKIMTALKEDAQVDLFRDITFYVYFSLLLIQLVLSCFSDRSPLFSETIHDPNPCPESSASFLSRITFWWITGLIVRGYRQPLEGSDLWSLNKEDTSEQVVPVLVKNWKKECAKTRKQPVKVVYSSKDPAQPKESSKVDANEEVEALIVKSPQKEWNPSLFKVLYKTFGPYFLMSFFFKAIHDLMMFSGPQILKLLIKFVNDTKAPDWQGYFYTVLLFVTACLQTLVLHQYFHICFVSGMRIKTAVIGAVYRKALVITNSARKSSTVGEIVNLMSVDAQRFMDLATYINMIWSAPLQVILALYLLWLNLGPSVLAGVAVMVLMVPVNAVMAMKTKTYQVAHMKSKDNRIKLMNEILNGIKVLKLYAWELAFKDKVLAIRQEELKVLKKSAYLSAVGTFTWVCTPFLVALCTFAVYVTIDENNILDAQTAFVSLALFNILRFPLNILPMVISSIVQASVSLKRLRIFLSHEELEPDSIERRPVKDGGGTNSITVRNATFTWARSDPPTLNGITFSIPEGALVAVVGQVGCGKSSLLSALLAEMDKVEGHVAIKGSVAYVPQQAWIQNDSLRENILFGCQLEEPYYRSVIQACALLPDLEILPSGDRTEIGEKGVNLSGGQKQRVSLARAVYSNADIYLFDDPLSAVDAHVGKHIFENVIGPKGMLKNKTRILVTHSMSYLPQVDVIIVMSGGKISEMGSYQELLARDGAFAEFLRTYASTEQEQDAEENGVTGVSGPGKEAKQMENGMLVTDSAGKQLQRQLSSSSSYSGDISRHHNSTAELQKAEAKKEETWKLMEADKAQTGQVKLSVYWDYMKAIGLFISFLSIFLFMCNHVSALASNYWLSLWTDDPIVNGTQEHTKVRLSVYGALGISQGIAVFGYSMAVSIGGILASRCLHVDLLHSILRSPMSFFERTPSGNLVNRFSKELDTVDSMIPEVIKMFMGSLFNVIGACIVILLATPIAAIIIPPLGLIYFFVQRFYVASSRQLKRLESVSRSPVYSHFNETLLGVSVIRAFEEQERFIHQSDLKVDENQKAYYPSIVANRWLAVRLECVGNCIVLFAALFAVISRHSLSAGLVGLSVSYSLQVTTYLNWLVRMSSEMETNIVAVERLKEYSETEKEAPWQIQETAPPSSWPQVGRVEFRNYCLRYREDLDFVLRHINVTINGGEKVGIVGRTGAGKSSLTLGLFRINESAEGEIIIDGINIAKIGLHDLRFKITIIPQDPVLFSGSLRMNLDPFSQYSDEEVWTSLELAHLKDFVSALPDKLDHECAEGGENLSVGQRQLVCLARALLRKTKILVLDEATAAVDLETDDLIQSTIRTQFEDCTVLTIAHRLNTIMDYTRVIVLDKGEIQEYGAPSDLLQQRGLFYSMAKDAGLV
- Km: 5 µM
